The values below come from patent US20240317847A1 (Bayer, published 2024).

Usually Kd stands for a measure of binding affinity in units of concentration. Read a low Kd as tighter binding.

One test has as its target T1, human IL-11 (human, UniProt P20809 22-199).
T1 sequence: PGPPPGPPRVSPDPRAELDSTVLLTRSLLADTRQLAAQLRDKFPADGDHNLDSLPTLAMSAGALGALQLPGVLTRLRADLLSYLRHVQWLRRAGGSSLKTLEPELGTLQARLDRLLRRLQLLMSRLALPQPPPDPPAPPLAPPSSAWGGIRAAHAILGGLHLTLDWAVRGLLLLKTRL
In words: cell-based or functional assay.

For test [1], the target named is T2, murine IL-11 (mouse, UniProt P47873 22-199).
T2 sequence: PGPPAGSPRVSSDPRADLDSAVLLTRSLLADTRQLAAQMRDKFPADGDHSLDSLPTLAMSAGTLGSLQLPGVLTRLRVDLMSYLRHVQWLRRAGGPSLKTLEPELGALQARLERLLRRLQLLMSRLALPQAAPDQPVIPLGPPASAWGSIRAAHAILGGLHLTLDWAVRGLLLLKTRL
Nature of the test: cell-based or functional assay.

The target of the next test is T3, cynomolgus IL-11 (cynomolgus, UniProt P20808 22-199).
T3 sequence: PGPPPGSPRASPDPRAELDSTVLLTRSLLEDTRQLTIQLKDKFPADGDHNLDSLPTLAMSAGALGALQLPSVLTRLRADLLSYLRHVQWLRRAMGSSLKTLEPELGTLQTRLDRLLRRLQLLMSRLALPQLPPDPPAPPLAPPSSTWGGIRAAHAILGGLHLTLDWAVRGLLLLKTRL
In words: cell-based or functional assay.

A further test concerns the target T4, rat IL-11 (rat, UniProt Q99MF5 22-199).
T4 sequence: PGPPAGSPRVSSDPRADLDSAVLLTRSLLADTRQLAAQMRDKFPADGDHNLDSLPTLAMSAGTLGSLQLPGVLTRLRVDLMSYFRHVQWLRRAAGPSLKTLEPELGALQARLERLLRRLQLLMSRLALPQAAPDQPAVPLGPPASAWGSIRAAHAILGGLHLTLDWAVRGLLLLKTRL
In words: cell-based or functional assay.

In test [2] the target is T2, murine IL-11. In words: SPR (Biacore), 37 C, antibody captured via anti-Fc, IL-11 as analyte. On the procedure: To assess the binding kinetics and affinity of anti-IL-11 bispecific antibodies as well as their species cross-reactivity profile, binding assays were conducted using surface plasmon resonance (SPR). […] Antibodies were captured either via anti-human Fc IgGs (“Human antibody capture kit”, Order No. BR100839, Cytiva) or via anti-mouse Fc IgGs (“Mouse antibody capture kit, Order No. BR100383, Cytiva) covalently amine coupled to a Series S CM5 sensor chip (Cytiva) depending on the isotype. The amine coupling was carried out according to the manufacturer's instructions using 1-ethyl-3-(3-dimethylaminopropyl) carbodiimide hydrochloride (EDC), N-hydroxysuccinimide (NHS) and ethanolamine HCl, pH 8.5 (“Amine Coupling Kit” BR-1000-50, Cytiva.). Human, mouse, cynomolgus or rat IL-11 was used as analyte at several dilutions within the concentration range from 0.05-200 nM. For binding assays with only one concentration 200 nM IL-11 was used. The sensor surface was regenerated with glycine pH 1.7 after each antigen injection. Obtained sensorgrams were double referenced (subtraction of reference flow cell signal and buffer injection) and were fitted to a 1:1 Langmuir binding model to derive kinetic data using the Biacore T200 Evaluation software or the Biacore Insight software.
If no value is reported, there was either no binding or very low binding and multiphasic binding behavior.
For orientation: SPR reads the build-up and loss of mass on a sensor chip optically.

Another test addresses T5, human IL2Ra (human, UniProt P01589 22-240, limits assumed).
T5 construct: coated on the ELISA plate; also called IL-2 receptor alpha
T5 sequence (looked up): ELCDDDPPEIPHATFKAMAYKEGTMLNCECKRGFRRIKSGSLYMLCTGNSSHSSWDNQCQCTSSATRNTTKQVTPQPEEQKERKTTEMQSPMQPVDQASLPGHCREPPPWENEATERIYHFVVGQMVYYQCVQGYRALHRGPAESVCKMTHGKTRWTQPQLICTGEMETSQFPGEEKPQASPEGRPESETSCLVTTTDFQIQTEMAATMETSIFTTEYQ
Nature of the test: ELISA on coated IL2Ra, signal ratio to isotype control TPP-10159 at 3.3E-7 M antibody. As for the experimental part:
IL2RA (Peprotech, Germany, #200-02RC) was coated at 1 or 0 μg/ml (buffer only control) in 30 μl coating buffer (Candor, #113500) per well on a 384 well microtiter plate (Maxisorb, Nunc, #460518) over night at 4-8° C. After two washes with 50 μl/well washing buffer (PBS+0.05% Tween, pH 7.4), the plates were incubated for two hours at room temperature with 50 μl/well SmartBlock (Candor, #113500). After blocking, the plates were washed three times with washing buffer. Then, a dilution series of the respective antibody (1E-7 [M] down to 2E-13 [M]) in PBS+0.05% Tween, 10% SmartBlock were added in 30 μl to the microtiter plate and incubated for 90 min at room temperature. After three additional washes, 30 μl anti mouse IgG HRP-conjugated antibody (Biotechne, HAF007), diluted 1:1000 in PBS+0.05% Tween (pH 7.4), were added per well and incubated for one hour. After three additional washes, a mixture of Amplex red (Invitrogen, #12222, 10 mM stock solution in DMSO) 1:1000 diluted in PBS and H2O2 (30%, Merck, #107209)) diluted 1:10000 in PBS were added as substrate with 30 μl per well and incubated for 20 min in the dark. Relative fluorescence was measured with a microtiter plate reader at 535/590 nm.
IgG converted antibodies TPP-were tested for binding to IL2Ra as described in Example 20. The ratios of the signals obtained at an antibody concentration of 3.3E-7 [M] for IgG converted antibody versus the isotype control TPP-10159 were calculated and are shown in Table E22.
(In general: In an ELISA, binding on a coated surface is turned into a signal by an enzyme label.)

B1: TPP-18068 (antibody, mouse IgG1)
heavy: EVQLLESGGGLVQPGGSLRLSCAASGFTFSSYGMHWVRQAPGKGLEWVSVISYDGSYKYYADSVKGRFTISRDNSKNTLYLQMNSLRAEDTAVYYCAAGVPDYWGQGTLVTVSSAKTTPPSVYPLAPGSAAQTNSMVTLGCLVKGYFPEPVTVTWNSGSLSSGVHTFPAVLQSDLYTLSSSVTVPSSTWPSETVTCNVAHPASSTKVDKKIVPRDCGCKPCICTVPEVSSVFIFPPKPKDVLTITLTPKVTCVVVDISKDDPEVQFSWFVDDVEVHTAQTQPREEQFNSTFRSVSELPIMHQDWLNGKEFKCRVNSAAFPAPIEKTISKTKGRPKAPQVYTIPPPKEQMAKDKVSLTCMITDFFPEDITVEWQWNGQPAENYKNTQPIMDTDGSYFVYSKLNVQKSNWEAGNTFTCSVLHEGLHNHHTEKSLSHSPGK
light: QSVLTQPPSASGTPGQRVTISCTGSSSNIGAGYDVHWYQQLPGTAPKLLIYSNNERPSGVPDRFSGSKSGTSASLAISGLRSEDEADYYCAAWDDSLNGPVFGGGTKLTVLGQPKSSPSVTLFPPSSEELETNKATLVCTITDFYPGVVTVDWKVDGTPVTQGMETTQPSKQSNNKYMASSYLTLTARAWERHSSYSCQVTHEGHTVEKSLSRADCS
notes: mIgG1, Lambda
Regarding B1, the “Efficacy (%), Stat3 reporter gene assay” value with human IL-11 came out at 46.1%; with murine IL-11 [1] it was 93.6%; in the test with cynomolgus IL-11 it was 70%; with rat IL-11, 94%. Also, the “IC50, Stat3 reporter gene assay” value with human IL-11 was found to be 6.5 nM; with murine IL-11 [1], 1.2 nM; with cynomolgus IL-11, 4.1 nM; with rat IL-11, 1.8 nM. In the test with murine IL-11 [2], this molecule came in with a Kd of 0.41 nM. For the same molecule, the “Antibody/Isotype Control Ratio of IL-2Ra Binding Signals” value (“Antibody/Isotype Control Ratio” below) with human IL2Ra was found to be 377 ratio.

B2: TPP-29528 (antibody, mouse IgG1)
heavy: EVQLLESGGGLVQPGGSLRLSCAASGFTFSSYGMHWVRQAPGKGLEWVAVISYDGSYKYYADSVKGRFTISRDNSKNTLYLQMNSLRAEDTAVYYCAAGVPDYWGQGTLVTVSSAKTTPPSVYPLAPGSAAQTNSMVTLGCLVKGYFPEPVTVTWNSGSLSSGVHTFPAVLQSDLYTLSSSVTVPSSTWPSETVTCNVAHPASSTKVDKKIVPRDCGCKPCICTVPEVSSVFIFPPKPKDVLTITLTPKVTCVVVDISKDDPEVQFSWFVDDVEVHTAQTQPREEQFNSTFRSVSELPIMHQDWLNGKEFKCRVNSAAFPAPIEKTISKTKGRPKAPQVYTIPPPKEQMAKDKVSLTCMITDFFPEDITVEWQWNGQPAENYKNTQPIMDTDGSYFVYSKLNVQKSNWEAGNTFTCSVLHEGLHNHHTEKSLSHSPGK
light: QSVLTQPPSASGTPGQRVTISCSGSSSNIGSDYDVHWYQQLPGTAPKLLIYSNEERPSGVPDRFSGSKSGTSASLAISGLRSEDEADYYCSAWDSSLSGPVFGGGTKLTVLGQPKSSPSVTLFPPSSEELETNKATLVCTITDFYPGVVTVDWKVDGTPVTQGMETTQPSKQSNNKYMASSYLTLTARAWERHSSYSCQVTHEGHTVEKSLSRADCS
notes: mIgG1, Lambda
For B2, the “Efficacy (%), Stat3 reporter gene assay” value with human IL-11 is 81.2%; with murine IL-11 [1], 96.9%; with cynomolgus IL-11, 87.8%; with rat IL-11 it was 89.9%. Moreover, the “IC50, Stat3 reporter gene assay” value in the test with murine IL-11 [1] amounted to 0.89 nM; with cynomolgus IL-11, 0.44 nM; in the test with rat IL-11, 1.8 nM. In addition, the Kd with murine IL-11 [2] came to 0.23 nM. Moreover, in the test with human IL2Ra, the “Antibody/Isotype Control Ratio” value was 24.2 ratio.

B3: TPP-18087 (antibody, mouse IgG1, V domains shown)
VH: EVQLLESGGGLVQPGGSLRLSCAASGFTFSHYDMNWLRQAPGKGLEWVGVISYDGSNKFYADFVKGRFTISRDNSKNTLYLQMNSLRAEDTAVYYCARTPGSHFDYWGQGTLVTVSS
VL: QSVLTQPPSASGTPGQRVTISCSGSSSNIGNNAVNWYQQLPGTAPKLLIYYDDLLPSGVPDRFSGSKSGTSASLAISGLRSEDEADYYCSAWDDSLNGVVFGGGTKLTVLG
notes: mIgG1, Lambda
In the case of B3, the “Efficacy (%), Stat3 reporter gene assay” value in the test with human IL-11 stood at 47.8%; with murine IL-11 [1] it was 59.4%; with cynomolgus IL-11, 47.7%; with rat IL-11, 31.8%. Moreover, in the test with murine IL-11 [1], the “IC50, Stat3 reporter gene assay” value was 16 nM. This molecule came in with a dissociation constant Kd with murine IL-11 [2] of 41 nM. Further, in the test with human IL2Ra, the “Antibody/Isotype Control Ratio” value is 0.6 ratio.

B4: TPP-29519 (antibody, mouse IgG1)
heavy: QVQLVESGGGVVQPGRSLRLSCAASGFTFSHYDMHWVRQAPGKGLEWVAVISYHGSVKFYADSVKGRFTISRDNSKNTLYLQMNSLRAEDTAVYYCARTPGFHFDYWGQGTLVTVSSAKTTPPSVYPLAPGSAAQTNSMVTLGCLVKGYFPEPVTVTWNSGSLSSGVHTFPAVLQSDLYTLSSSVTVPSSTWPSETVTCNVAHPASSTKVDKKIVPRDCGCKPCICTVPEVSSVFIFPPKPKDVLTITLTPKVTCVVVDISKDDPEVQFSWFVDDVEVHTAQTQPREEQFNSTFRSVSELPIMHQDWLNGKEFKCRVNSAAFPAPIEKTISKTKGRPKAPQVYTIPPPKEQMAKDKVSLTCMITDFFPEDITVEWQWNGQPAENYKNTQPIMDTDGSYFVYSKLNVQKSNWEAGNTFTCSVLHEGLHNHHTEKSLSHSPGK
light: QSVLTQPPSASGTPGQRVTISCSGSSSNIGSNYVSWYQQLPGTAPKLLIYYDDLRPSGVPDRFSGSKSGTSASLAISGLRSEDEADYYCSAWDDSLSGVVFGGGTKLTVLGQPKSSPSVTLFPPSSEELETNKATLVCTITDFYPGVVTVDWKVDGTPVTQGMETTQPSKQSNNKYMASSYLTLTARAWERHSSYSCQVTHEGHTVEKSLSRADCS
notes: mIgG1, Lambda
Take B4: the “Efficacy (%), Stat3 reporter gene assay” value in the test with human IL-11 is 100%; with murine IL-11 [1], 101%; with cynomolgus IL-11, 99.2%; with rat IL-11, 99.7%. The “IC50, Stat3 reporter gene assay” value with human IL-11 was 1.8 nM; in the test with murine IL-11 [1], 1.2 nM; with cynomolgus IL-11 it was 0.89 nM; with rat IL-11, 1 nM. Besides, the Kd in the test with murine IL-11 [2] was found to be 0.0035 nM. Also, the “Antibody/Isotype Control Ratio” value in the test with human IL2Ra is 0.7 ratio.
